Assay results: publication PMC2771690 (Molecular cell, 2009)

Target: T1, proliferating cell nuclear antigen (PCNA), yeast (yeast, UniProt P15873 1-258)
T1 sequence (looked up): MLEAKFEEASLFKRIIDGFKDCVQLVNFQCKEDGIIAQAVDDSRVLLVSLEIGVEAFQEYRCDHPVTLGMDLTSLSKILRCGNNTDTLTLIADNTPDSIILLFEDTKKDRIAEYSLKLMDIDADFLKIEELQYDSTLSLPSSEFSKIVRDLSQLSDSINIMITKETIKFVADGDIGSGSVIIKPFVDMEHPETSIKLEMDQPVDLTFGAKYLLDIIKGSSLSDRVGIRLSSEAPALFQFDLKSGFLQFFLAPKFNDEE
Assay: pull-down

binding result: binds
B1: GST-PINIT (Siz1 aa 172-315 as a C-terminal fusion to GST), wild-type (domain or fragment, S. cerevisiae, UniProt Q04195 172-315, looked up)
chain: VPTIHFKESPFYKIQRLIPELVMNVEVTGGRGMCSAKFKLSKADYNLLSNPNSKHRLYLFSGMINPLGSRGNEPIQFPFPNELRCNNVQIKDNIRGFKSKPGTAKPADLTPHLKPYTQQNNVELIYAFTTKEYKLFGYIVEMIT
